{"source": "paper PMC9816786", "about": "(Molecular Metabolism, 2022)", "binders": {"B1": {"name": "P1.40, CHRD-specific single domain antibody (nanobody), purified from E. coli (VHH)", "VHH": "QVKLEESGGGLVQAGGSLRLSCSPSDRTFSAYAMGWFRQVPGREREFVATIRDSDASIYYTDSVKGRFTISRDNAKNTVYLQMNSLIPDDTAVYYCAARQYYSGRVYSTFREEYDYWGQGTQVTVSS", "notes": "TEV site ENLYFQ/G: a glycine may be left at the N-terminus after cleavage; also called nanobody P1.40; biotinylated P1.40; source: E. coli BL21 (DE3) pLysS, purified (HisTrap, TEV cleavage, size-exclusion chromatography); not shown: DsbC, N-terminal, cleaved; His6, N-terminal, cleaved"}, "B2": {"name": "P1.40 expressed on yeast cells (cell surface, HA-tagged) (VHH)", "VHH": "B1 VHH"}, "B3": {"name": "CHRD (aa 449–693) of human PCSK9, 6xHis-tagged (domain or fragment, UniProt Q8NBP7 449-692, looked up)", "chain": "HGAGWQLFCRTVWSAHSGPTRMATAVARCAPDEELLSCSSFSRSGKRRGERMEAQGGKLVCRAHNAFGGEGVYAIARCCLLPQANCSVHTAPPAEASMGTRVHCHQQGHVLTGCSSHWEVEDLGTHKPPVLRPRGQPNQCVGHREASIHASCCHAPGLECKVKEHGIPAPQEQVTVACEEGWTLTGCSALPGTSHVLGAYAVDNTCVVRSRDVSTTGSTSEGAVTAVAICCRSRHLAQASQELQ", "modifications": "biotinylated where it was immobilised for BLI (site not told)", "notes": "human PCSK9, C-terminal Cys/His-rich domain, aa 449-693 as printed (modules M1 453-529, M2 530-603, M3 604-692); also called C-terminal Cys/His-rich domain; CHRD alone; source: FreeStyle293 FS cells, transfected, purified (NiNTA, size-exclusion chromatography)"}}, "key": {"[1]": {"target": "T1, Human PCSK9 (full length), 6xHis-tagged, purified (human, UniProt Q8NBP7, biotinylated where it was immobilised for BLI (site not told))", "T1 construct": "human PCSK9, full length cDNA in pIRES2-EGFP; also called full-length PCSK9; proprotein convertase substilisin kexin 9; source: FreeStyle293 FS cells, transfected, purified (NiNTA, size-exclusion chromatography)", "test": "SEC + other: SAXS; size exclusion chromatography followed by small angle X-ray scattering of PCSK9 alone or in complex with P1.40, in solution", "conditions": "both partners purified"}, "[2]": {"target": "T1, Human PCSK9 (full length), …", "test": "BLI; biotinylated P1.40 immobilised (0.25 μg/μL), PCSK9 or CHRD in solution, pH 7.5, 1:1 binding model; association 3600 s (PCSK9) or 1800 s (CHRD), dissociation 3600 s", "conditions": "both partners purified"}, "[3]": {"target": "T2, CHRD (aa 449–693) of human PCSK9, 6xHis-tagged (human, UniProt Q8NBP7, biotinylated where it was immobilised for BLI (site not told))", "T2 construct": "human PCSK9, C-terminal Cys/His-rich domain, aa 449-693 as printed (modules M1 453-529, M2 530-603, M3 604-692); also called C-terminal Cys/His-rich domain; CHRD alone; source: FreeStyle293 FS cells, transfected, purified (NiNTA, size-exclusion chromatography)", "test": "BLI; biotinylated P1.40 immobilised (0.25 μg/μL), PCSK9 or CHRD in solution, pH 7.5, 1:1 binding model; association 3600 s (PCSK9) or 1800 s (CHRD), dissociation 3600 s", "conditions": "both partners purified"}, "[4]": {"target": "T3, CHRD D480A mutant (Homo sapiens (Human)., UniProt Q8NBP7, D480A)", "T3 construct": "human PCSK9 CHRD, aa 449-693 as printed for the parent construct; source: HEK293 cells", "test": "flow cytometry on cells; P1.40 or its mutants expressed on yeast cells (HA-tagged), 6xHis-tagged CHRD or its mutants in solution; cell binding assays and FACS sorting for deep mutational scanning", "conditions": "one partner purified"}, "[5]": {"target": "T4, CHRD F456A mutant (Homo sapiens (Human)., UniProt Q8NBP7, F456A)", "T4 construct": "human PCSK9 CHRD, aa 449-693 as printed for the parent construct; source: HEK293 cells", "test": "flow cytometry on cells; P1.40 or its mutants expressed on yeast cells (HA-tagged), 6xHis-tagged CHRD or its mutants in solution; cell binding assays and FACS sorting for deep mutational scanning", "conditions": "one partner purified"}, "[6]": {"target": "T5, CHRD R476A mutant (Homo sapiens (Human)., UniProt Q8NBP7, R476A)", "T5 construct": "human PCSK9 CHRD, aa 449-693 as printed for the parent construct; source: HEK293 cells", "test": "flow cytometry on cells; P1.40 or its mutants expressed on yeast cells (HA-tagged), 6xHis-tagged CHRD or its mutants in solution; cell binding assays and FACS sorting for deep mutational scanning", "conditions": "one partner purified"}, "[7]": {"target": "T6, Human CAP1 (cyclase associated protein 1), 6xHis-tagged, purified (human, UniProt Q01518 1-475, biotinylated where it was immobilised for BLI (site not told))", "T6 construct": "human adenylyl cyclase-associated protein 1 (CAP1), cDNA cloned into pCMV; also called adenylyl cyclase-associated protein 1; biotinylated CAP1; source: FreeStyle293 FS cells, transfected, purified (NiNTA, size-exclusion chromatography)", "T6 sequence (Q01518 whole entry)": "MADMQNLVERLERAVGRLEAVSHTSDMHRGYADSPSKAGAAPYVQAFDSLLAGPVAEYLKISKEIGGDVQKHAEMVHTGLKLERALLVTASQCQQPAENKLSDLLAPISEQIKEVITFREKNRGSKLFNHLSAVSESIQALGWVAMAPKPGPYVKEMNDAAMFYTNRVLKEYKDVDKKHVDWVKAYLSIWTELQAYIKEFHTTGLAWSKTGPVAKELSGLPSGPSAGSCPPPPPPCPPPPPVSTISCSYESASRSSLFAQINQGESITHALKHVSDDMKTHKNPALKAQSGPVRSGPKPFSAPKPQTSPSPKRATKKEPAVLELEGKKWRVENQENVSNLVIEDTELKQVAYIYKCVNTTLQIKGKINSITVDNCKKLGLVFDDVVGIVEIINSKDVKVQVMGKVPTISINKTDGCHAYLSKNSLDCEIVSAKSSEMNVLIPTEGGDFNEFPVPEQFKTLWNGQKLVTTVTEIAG", "test": "BLI; biotinylated PCSK9 or biotinylated CHRD immobilised (0.2 μg/ml), CAP1 in solution, pH 7.5, association and dissociation 600 s", "conditions": "both partners purified"}}, "data": [{"binder": "B1", "values": [{"measurement": "stoichiometry N", "setting": "[1]", "result": 1}, {"measurement": "Kd", "setting": "[2]", "result": 5.6, "unit": "nM"}, {"measurement": "koff", "setting": "[2]", "result": "9e-06", "unit": "s⁻¹"}, {"measurement": "kon", "setting": "[2]", "result": 1600, "unit": "M⁻¹ s⁻¹"}, {"measurement": "Kd", "setting": "[3]", "result": 0.0903, "unit": "nM"}, {"measurement": "koff", "setting": "[3]", "result": "3.5e-05", "unit": "s⁻¹"}, {"measurement": "kon", "setting": "[3]", "result": 380000, "unit": "M⁻¹ s⁻¹"}]}, {"binder": "B2", "values": [{"measurement": "fold decrease of affinity against wild-type CHRD", "setting": "[4]", "result": 142, "unit": "fold"}, {"measurement": "fold decrease of affinity against wild-type CHRD", "setting": "[5]", "result": 12, "unit": "fold"}, {"measurement": "fold decrease of affinity against wild-type CHRD", "setting": "[6]", "result": 17, "unit": "fold"}]}, {"binder": "B3", "values": [{"measurement": "Kd", "setting": "[7]", "result": 1260, "unit": "nM"}, {"measurement": "koff", "setting": "[7]", "result": 0.0007, "unit": "s⁻¹"}, {"measurement": "kon", "setting": "[7]", "result": 560, "unit": "M⁻¹ s⁻¹"}]}]}
